Experimental data reported in patent US20180155451A1 (published 2018).

T1: FcgRIIb extracellular domain with C-terminal His tag (human, UniProt P31994 43-217)
T1 construct: extracellular domain; Expressed in FreeStyle293 cells; also called FcγRIIb; 2b; not shown: His tag at the C terminus
T1 sequence (looked up): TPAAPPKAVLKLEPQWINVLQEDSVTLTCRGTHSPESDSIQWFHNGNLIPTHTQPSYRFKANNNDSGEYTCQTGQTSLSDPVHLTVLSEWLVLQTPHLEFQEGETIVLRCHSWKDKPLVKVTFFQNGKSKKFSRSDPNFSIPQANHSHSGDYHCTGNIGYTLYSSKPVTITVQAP

T2: FcgRIIa type H extracellular domain with C-terminal His tag (human, UniProt P12318 34-217)
T2 construct: extracellular domain; also called FcgRIIaH; FcgRIIa H; not shown: His tag at the C terminus
T2 sequence (looked up): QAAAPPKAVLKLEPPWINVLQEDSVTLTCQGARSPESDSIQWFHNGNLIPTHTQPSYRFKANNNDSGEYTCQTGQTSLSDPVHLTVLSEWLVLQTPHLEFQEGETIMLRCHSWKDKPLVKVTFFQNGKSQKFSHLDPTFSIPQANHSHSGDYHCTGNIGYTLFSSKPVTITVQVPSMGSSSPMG

T3: FcgRIIa type R extracellular domain with C-terminal His tag (human, UniProt P12318 34-217)
T3 construct: extracellular domain; also called FcgRIIaR; FcgRIIa R; not shown: His tag at the C terminus
T3 sequence (looked up): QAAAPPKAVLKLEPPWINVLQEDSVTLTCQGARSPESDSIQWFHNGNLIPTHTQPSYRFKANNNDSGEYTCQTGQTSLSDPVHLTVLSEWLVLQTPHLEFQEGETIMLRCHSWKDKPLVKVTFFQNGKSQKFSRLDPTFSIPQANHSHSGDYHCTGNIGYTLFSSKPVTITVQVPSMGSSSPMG


What was measured:
[1] = molecular target: T1, FcgRIIb extracellular domain with …; test: SPR (Biacore); KD of the sample for FcgRIIaR divided by its KD for FcgRIIb (selectivity for FcgRIIb)
Description: (§1) Analysis of interaction between obj ective antibody and the FcγR was carried out using Biacore T100 (GE Healthcare), Biacore T200, Biacore A100, and Biacore 4000. HBS-EP+ (GE Healthcare) was used as the running buffer, and the measurement temperature was set to 25° C. Chips produced by immobilizing the antigen peptide by the amine coupling method to a Series S sensor Chip CM5 (GE Healthcare), chips produced by allowing preliminarily biotinylated antigen peptides to interact with and immobilize onto a Series S Sensor Chip SA (certified) (GE Healthcare), chips produced by immobilizing Protein L (ACTIGEN, BioVision) to Series S Sencor Chip CM5 (GE Healthcare), or chips produced by immobilizing Protein A/G (Thermo Scientific) to Series S Sencor Chip CM5 (GE Healthcare) were used. Antibodies of interest were captured onto these chips, and allowed to interact to each FcγR diluted with running buffer. To regenerate and repeatedly use the chip, the antibodies captured onto the chip were washed off by reacting 10 mM glycine-HCl, pH 1.5.

[2] = molecular target: T1, FcgRIIb extracellular domain with …; test: SPR (Biacore); KD of IL6R-B3/IL6R-L for this FcgR divided by KD of the sample
Description: as §1

[3] = molecular target: T2, FcgRIIa type H extracellular domain …; test: as above
Description: as §1

[4] = molecular target: T3, FcgRIIa type R extracellular domain …; test: as above
Description: as §1

[5] = molecular target: T1, FcgRIIb extracellular domain with …; test: SPR (Biacore), antibody captured on chip, soluble FcgR as analyte, kinetic 1:1 fit
Description: (§2) The variants were assessed for the binding activity to FcgR Ia, FcgR IIaR, FcgR IIaH, and FcgRIIb according to the method described in Reference Example 8.
as §1

[6] = molecular target: T4, FcgRIa extracellular domain with C-terminal His tag (human, UniProt P12314 16-292); test: as above
T4 construct: extracellular domain; Expressed in FreeStyle293 cells; also called FcγRIa; not shown: His tag at the C terminus
T4 sequence (P12314 16-292): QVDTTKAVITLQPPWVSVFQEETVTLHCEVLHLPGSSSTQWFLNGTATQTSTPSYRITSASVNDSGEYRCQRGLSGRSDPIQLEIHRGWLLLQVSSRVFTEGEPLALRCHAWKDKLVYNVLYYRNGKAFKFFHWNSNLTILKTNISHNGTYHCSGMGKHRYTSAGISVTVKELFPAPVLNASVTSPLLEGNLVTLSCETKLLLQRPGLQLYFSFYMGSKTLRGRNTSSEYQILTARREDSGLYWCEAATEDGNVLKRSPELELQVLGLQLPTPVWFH
Description: as §2, §1

[7] = molecular target: T3, FcgRIIa type R extracellular domain …; test: as above
Description: as §2, §1

[8] = molecular target: T5, FcgRIIIa type V extracellular domain with C-terminal His tag (human, UniProt P08637 17-208); test: SPR (Biacore), antibody captured on chip, soluble FcgR as analyte; too weak for kinetics, KD from steady-state 1:1 equation
T5 construct: extracellular domain; also called FcgRIIIaV; FcgRIIIa V; not shown: His tag at the C terminus
T5 sequence (P08637 17-208 F176V): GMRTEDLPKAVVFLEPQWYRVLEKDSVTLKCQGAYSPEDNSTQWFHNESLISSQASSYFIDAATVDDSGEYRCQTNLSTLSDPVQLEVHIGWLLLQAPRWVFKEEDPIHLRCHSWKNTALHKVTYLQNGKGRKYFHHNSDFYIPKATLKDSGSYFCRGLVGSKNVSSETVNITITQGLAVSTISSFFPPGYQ
Description: (§3) KD can be calculated by substituting the values of Rmax, RI, and C into this equation. The values of RI and C can be determined from the sensorgram of the measurement results and measurement conditions. Rmax was calculated according to the following method.

[9] = molecular target: T2, FcgRIIa type H extracellular domain …; test: as above
Description: as §3

[10] = molecular target: T2, FcgRIIa type H extracellular domain …; test: SPR (Biacore), antibody captured on chip, soluble FcgR as analyte, kinetic 1:1 fit
Description: as §2, §1

| Binder | KD(IIaR)/KD(IIb) [1] [ratio] | Relative KD [2] [ratio] | Relative KD [3] [ratio] | Relative KD [4] [ratio] | Kd [5] [nM] | Kd [6] [nM] | Kd [7] [nM] | Kd [8] [nM] | Kd [9] [nM] | Kd [10] [nM] |
| --- | --- | --- | --- | --- | --- | --- | --- | --- | --- | --- |
| IL6R-BP256/IL6R-L (antibody, human IgG1, kappa, Homodimerized antibody; IL6R-BP256 is IL6R-BP208 with S239D) heavy: QVQLQESGPGLVKPSETLSLTCAVSGHSISHDHAWSWVRQPPGEGLEWIGFISYSGITNYNPSLQGRVTISRDNSKNTLYLQMNSLRAEDTAVYYCARSLARTTAMDYWGEGTLVTVSSASTKGPSVFPLAPSSKSTSGGTAALGCLVKDYFPEPVTVSWNSGALTSGVHTFPAVLQSSGLYSLSSVVTVPSSSLGTQTYICNVNHKPSNTKVDKKVEPKSCDKTHTCPPCPAPDLLGDDDVFLFPPKPKDTLMISRTPEVTCVVVDVSDEDGEVKFNWYVDGVEVHNAKTKPREEQYNSTYRVVSVLTVLHQDWLNGKEYKCKVSNKALPRPIEKTISKAKGQPREPQVYTLPPSRDELTKNQVSLTCLVKGFYPSDIAVEWESNGQPENNYKTTPPVLDSDGSFFLYSKLTVDKSRWQQGNVFSCSVMHEALHNHYTQESLSLSP light: not shown | 8.4 | 35.7 | 0 | 1.5 | 87 | 2 | 730 | 11000 | 21000 |  |
| IL6R-BP257/IL6R-L (antibody, human IgG1, kappa, Homodimerized antibody; IL6R-BP257 is IL6R-BP208 with S239E) heavy: QVQLQESGPGLVKPSETLSLTCAVSGHSISHDHAWSWVRQPPGEGLEWIGFISYSGITNYNPSLQGRVTISRDNSKNTLYLQMNSLRAEDTAVYYCARSLARTTAMDYWGEGTLVTVSSASTKGPSVFPLAPSSKSTSGGTAALGCLVKDYFPEPVTVSWNSGALTSGVHTFPAVLQSSGLYSLSSVVTVPSSSLGTQTYICNVNHKPSNTKVDKKVEPKSCDKTHTCPPCPAPDLLGDDEVFLFPPKPKDTLMISRTPEVTCVVVDVSDEDGEVKFNWYVDGVEVHNAKTKPREEQYNSTYRVVSVLTVLHQDWLNGKEYKCKVSNKALPRPIEKTISKAKGQPREPQVYTLPPSRDELTKNQVSLTCLVKGFYPSDIAVEWESNGQPENNYKTTPPVLDSDGSFFLYSKLTVDKSRWQQGNVFSCSVMHEALHNHYTQESLSLSP light: not shown | 3 | 7.2 | 0 | 0.9 | 430 | 0.31 | 1300 | 19000 | 39000 |  |
| IL6R-AP002/IL6R-BP256/IL6R-L (antibody, human IgG1, kappa, Heterodimerized antibody with S239D in one H chain only; IL6R-AP002 is IL6R-A5 (IL6R-G1d with D356K and H435R) with E233D, G237D, P238D, H268D, P271G and A330R) heavy 1: QVQLQESGPGLVKPSETLSLTCAVSGHSISHDHAWSWVRQPPGEGLEWIGFISYSGITNYNPSLQGRVTISRDNSKNTLYLQMNSLRAEDTAVYYCARSLARTTAMDYWGEGTLVTVSSASTKGPSVFPLAPSSKSTSGGTAALGCLVKDYFPEPVTVSWNSGALTSGVHTFPAVLQSSGLYSLSSVVTVPSSSLGTQTYICNVNHKPSNTKVDKKVEPKSCDKTHTCPPCPAPDLLGDDSVFLFPPKPKDTLMISRTPEVTCVVVDVSDEDGEVKFNWYVDGVEVHNAKTKPREEQYNSTYRVVSVLTVLHQDWLNGKEYKCKVSNKALPRPIEKTISKAKGQPREPQVYTLPPSRKELTKNQVSLTCLVKGFYPSDIAVEWESNGQPENNYKTTPPVLDSDGSFFLYSKLTVDKSRWQQGNVFSCSVMHEALHNRYTQKSLSLSP heavy 2: QVQLQESGPGLVKPSETLSLTCAVSGHSISHDHAWSWVRQPPGEGLEWIGFISYSGITNYNPSLQGRVTISRDNSKNTLYLQMNSLRAEDTAVYYCARSLARTTAMDYWGEGTLVTVSSASTKGPSVFPLAPSSKSTSGGTAALGCLVKDYFPEPVTVSWNSGALTSGVHTFPAVLQSSGLYSLSSVVTVPSSSLGTQTYICNVNHKPSNTKVDKKVEPKSCDKTHTCPPCPAPDLLGDDDVFLFPPKPKDTLMISRTPEVTCVVVDVSDEDGEVKFNWYVDGVEVHNAKTKPREEQYNSTYRVVSVLTVLHQDWLNGKEYKCKVSNKALPRPIEKTISKAKGQPREPQVYTLPPSRDELTKNQVSLTCLVKGFYPSDIAVEWESNGQPENNYKTTPPVLDSDGSFFLYSKLTVDKSRWQQGNVFSCSVMHEALHNHYTQESLSLSP light: not shown | 34.3 | 752 | 0.2 | 7.7 | 4.1 | 3.6 | 140 | 17000 |  | 4200 |
| IL6R-AP002/IL6R-BP257/IL6R-L (antibody, human IgG1, kappa, Heterodimerized antibody with S239E in one H chain only) heavy 1: QVQLQESGPGLVKPSETLSLTCAVSGHSISHDHAWSWVRQPPGEGLEWIGFISYSGITNYNPSLQGRVTISRDNSKNTLYLQMNSLRAEDTAVYYCARSLARTTAMDYWGEGTLVTVSSASTKGPSVFPLAPSSKSTSGGTAALGCLVKDYFPEPVTVSWNSGALTSGVHTFPAVLQSSGLYSLSSVVTVPSSSLGTQTYICNVNHKPSNTKVDKKVEPKSCDKTHTCPPCPAPDLLGDDSVFLFPPKPKDTLMISRTPEVTCVVVDVSDEDGEVKFNWYVDGVEVHNAKTKPREEQYNSTYRVVSVLTVLHQDWLNGKEYKCKVSNKALPRPIEKTISKAKGQPREPQVYTLPPSRKELTKNQVSLTCLVKGFYPSDIAVEWESNGQPENNYKTTPPVLDSDGSFFLYSKLTVDKSRWQQGNVFSCSVMHEALHNRYTQKSLSLSP heavy 2: QVQLQESGPGLVKPSETLSLTCAVSGHSISHDHAWSWVRQPPGEGLEWIGFISYSGITNYNPSLQGRVTISRDNSKNTLYLQMNSLRAEDTAVYYCARSLARTTAMDYWGEGTLVTVSSASTKGPSVFPLAPSSKSTSGGTAALGCLVKDYFPEPVTVSWNSGALTSGVHTFPAVLQSSGLYSLSSVVTVPSSSLGTQTYICNVNHKPSNTKVDKKVEPKSCDKTHTCPPCPAPDLLGDDEVFLFPPKPKDTLMISRTPEVTCVVVDVSDEDGEVKFNWYVDGVEVHNAKTKPREEQYNSTYRVVSVLTVLHQDWLNGKEYKCKVSNKALPRPIEKTISKAKGQPREPQVYTLPPSRDELTKNQVSLTCLVKGFYPSDIAVEWESNGQPENNYKTTPPVLDSDGSFFLYSKLTVDKSRWQQGNVFSCSVMHEALHNHYTQESLSLSP light: not shown | 27.7 | 657 | 0.2 | 8.3 | 4.7 | 1.9 | 130 | 14000 |  | 4900 |
